Tests used:
NTSR1 = molecular target: T1, NTSR1 (Rattus norvegicus, UniProt P20789); assay: Thermostability assay of ^3H-NTS-bound NTSR1; type: biochemical; settings: DDM-solubilized
T1 construct: the wild-type rat NTSR1 (residues 43-396) and a C-terminal His10 tag; hemagglutinin signal peptide (N); Flag (N); His10 (C); made in house; host or cells: Trichoplusia ni insect cells, baculovirus (modified pFastBac1)
Procedure: The samples were placed on a rotating mixer at 4° C. for 1 hour. Cell debris and non-solubilized material were removed by ultracentrifugation (152,800×g, 4° C., 30 min), and the supernatant containing detergent-solubilized NTSR1 was used to test for thermal stability in the presence of NTS and mini-G proteins. For thermal denaturation curves, the supernatants were diluted 6.67-fold into assay buffer (50 mM TrisHCl pH 7.4, 100 mM NaCl, 1 mM MgCl2) containing 22.5 μM mini-G protein and 10 nM ^3H-NTS and incubated for 1 hour on ice. After addition of apyrase (0.25 units/ml, NEB), the sample was placed on ice for an additional 30 min. Samples (120 μl aliquots) were exposed to different temperatures between 0° C. and 60° C. for 30 min and placed on ice. […] Control reactions on ice were recorded at the start and at the end of each denaturation experiment. The percentage of activity remaining after heat exposure was determined with respect to the unheated control. Data were analyzed by nonlinear regression using a Boltzmann sigmoidal equation in the Prism software (GraphPad).

A2AR = A2AR (Homo sapiens, UniProt P29274, N154A); assay: Thermostability assay of ^3H-NECA-bound A2AR
A2AR, sequence (P29274 1-317 N154A): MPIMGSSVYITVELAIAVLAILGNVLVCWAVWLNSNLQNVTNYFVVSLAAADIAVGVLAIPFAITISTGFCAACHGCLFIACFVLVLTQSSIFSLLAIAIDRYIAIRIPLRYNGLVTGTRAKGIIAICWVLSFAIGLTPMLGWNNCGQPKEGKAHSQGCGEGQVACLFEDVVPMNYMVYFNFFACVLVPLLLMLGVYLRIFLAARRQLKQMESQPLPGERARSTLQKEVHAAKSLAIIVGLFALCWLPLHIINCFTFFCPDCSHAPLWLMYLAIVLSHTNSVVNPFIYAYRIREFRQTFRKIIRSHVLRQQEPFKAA
Procedure: The samples were incubated at room temperature for 1 h, then chilled on ice for 30 min. DDM, DM or OG were added to a final concentration of 0.1%, 0.13% or 0.8%, respectively, and samples were incubated on ice for 1 h. Cell debris was removed by centrifugation for 5 min at 20,000×g and the supernatant was aliquoted into PCR strips. Samples were heated to the desired temperature for exactly 30 min, then quenched on ice for 30 min. Samples (50 μl) were loaded onto gel filtration resin packed into a 96-well filter plate (Millipore), which was centrifuged to separate receptor-bound from free radioligand. […] Data were analyzed by nonlinear regression using GraphPad Prism software. Apparent Tm values were derived from sigmoidal dose-response analysis. Results represent the mean±SEM of two independent experiments, performed in duplicate.
Samples were heated to the desired temperature for exactly 30 min, then quenched on ice for 30 min. Samples (50 μl) were loaded onto gel-filtration resin (Toyopearl HW-40F) packed into a 96-well filter plate (Millipore), which was centrifuged to separate receptor-bound from free radioligand [28]. […] Data were analysed by nonlinear regression using GraphPad Prism software. Apparent Tm values were derived from sigmoidal dose-response analysis performed by non-liner regression. Results represent the mean±SEM of two independent experiments, performed in duplicate.

T1 sequence (P20789 43-396): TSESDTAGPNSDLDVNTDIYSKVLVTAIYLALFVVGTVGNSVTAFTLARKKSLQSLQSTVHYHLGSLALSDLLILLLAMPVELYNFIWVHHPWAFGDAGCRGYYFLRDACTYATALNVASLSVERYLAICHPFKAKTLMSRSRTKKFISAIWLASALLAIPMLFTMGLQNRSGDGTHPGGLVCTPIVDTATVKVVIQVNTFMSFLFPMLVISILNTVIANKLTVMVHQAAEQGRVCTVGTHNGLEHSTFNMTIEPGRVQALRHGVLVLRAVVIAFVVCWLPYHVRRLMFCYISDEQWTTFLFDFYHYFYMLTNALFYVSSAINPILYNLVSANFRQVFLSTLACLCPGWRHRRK

B1: Mini-Gs/q58: mini-Gs with final 19 residues of α5 helix changed to those in Gαq (13 mutations) (protein)
chain: MGHHHHHHENLYFQGIEKQLQKDKQVYRATHRLLLLGADNSGKSTIVKQMRILHGGSGGSGGTSGIFETKFQVDKVNFHMFDVGGQRDERRKWIQCFNDVTAIIFVVDSSDYNRLQEALNDFKSIWNNRWLRTISVILFLNKQDLLAEKVLAGKSKIEDYFPEFARYTTPEDATPEPGEDPRVTRAKYFIRDEFLRISTASGDGRHYCYPHFTCAVDTENARRIFAAVKDTILQLNLKEYNLV
modifications: Mini-Gs/q58
Q: Which results are given for B1?
A: shift in the thermostability of NTSR1 (NTSR1): no significant shift; coupling of mini-Gs/q chimera to A2AR (thermostability assay and SEC) (A2AR): did not couple

Reference: patent US11339383B2, “G proteins” (HEPTARES THERAPEUTICS LIMITED, priority 2016, dated 2022)
